In patent publication US20210181204A1 (SYNGENTA PARTICIPATIONS, published 2021):

Tests used:
[1] = biological target: eCry3.1Ab hybrid insecticidal protein; assay: Bio-Layer Interferometry, target 15.6 nM to 1 uM
[2] = biological target: T1, Cry1Ab insecticidal protein (Bacillus thuringiensis, UniProt P0A370 1-615); assay: Bio-Layer Interferometry, target 15.6 nM to 1 uM
[3] = biological target: T1, Cry1Ab insecticidal protein; assay: direct ELISA, coated protein, SA-AP, 405 nm
[4] = biological target: eCry3.1Ab hybrid insecticidal protein; assay: direct ELISA, coated protein, SA-AP, 405 nm
[5] = biological target: Cry1Aa insecticidal protein (Bacillus thuringiensis subsp. aizawai, UniProt P0A367 12-1176); assay: direct ELISA, coated protein, SA-AP, 405 nm
[6] = biological target: Cry1Ai insecticidal protein; assay: direct ELISA, coated protein, SA-AP, 405 nm
[7] = biological target: Cry1Ab.1Ca insecticidal protein; assay: direct ELISA, coated protein, SA-AP, 405 nm
[8] = biological target: T2, mCry3A insecticidal protein (Bacillus thuringiensis subsp. …, UniProt P0A379 48-644, limits assumed); assay: direct ELISA: protein coated at 500 ng/ml, 10 nM tagged synNAPS with SA-AP
T2 construct: also called modified Cry3A
T2 sequence: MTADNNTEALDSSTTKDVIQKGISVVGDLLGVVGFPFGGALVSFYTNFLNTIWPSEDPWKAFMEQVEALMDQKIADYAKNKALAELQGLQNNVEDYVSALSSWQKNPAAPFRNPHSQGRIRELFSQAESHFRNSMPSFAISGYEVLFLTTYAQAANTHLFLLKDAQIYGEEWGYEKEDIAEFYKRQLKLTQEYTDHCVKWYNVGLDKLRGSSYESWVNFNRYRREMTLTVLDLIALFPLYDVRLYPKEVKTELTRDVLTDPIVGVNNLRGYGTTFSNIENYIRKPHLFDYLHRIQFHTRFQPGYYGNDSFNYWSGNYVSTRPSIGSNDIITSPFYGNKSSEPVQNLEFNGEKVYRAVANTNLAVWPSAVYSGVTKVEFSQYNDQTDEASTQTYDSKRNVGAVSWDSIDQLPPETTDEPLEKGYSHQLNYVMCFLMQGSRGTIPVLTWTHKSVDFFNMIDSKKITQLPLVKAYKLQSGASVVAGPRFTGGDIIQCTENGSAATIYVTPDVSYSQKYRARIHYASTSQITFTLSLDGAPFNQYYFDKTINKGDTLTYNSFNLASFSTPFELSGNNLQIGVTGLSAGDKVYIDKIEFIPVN

[9] = biological target: T2, mCry3A insecticidal protein; assay: direct ELISA, coated protein, SA-AP, 405 nm
[10] = biological target: T1, Cry1Ab insecticidal protein; assay: direct ELISA: protein coated at 500 ng/ml, 10 nM tagged synNAPS with SA-AP
[11] = biological target: Cry1Ai insecticidal protein; assay: as above
[12] = biological target: T2, mCry3A insecticidal protein; assay: Bio-Layer Interferometry, target 15.6 nM to 1 uM
[13] = biological target: T2, mCry3A insecticidal protein; assay: direct ELISA on coated mCry3A
[14] = biological target: T2, mCry3A insecticidal protein; assay: direct ELISA: mCry3A coated at 1 ug/ml, RGS-His HRP detection
[15] = biological target: T1, Cry1Ab insecticidal protein; assay: direct ELISA on coated Cry1Ab, RGS-His HRP
[16] = biological target: T1, Cry1Ab insecticidal protein; assay: direct ELISA: Cry1Ab coated at 1 ug/ml, RGS-His HRP detection

B1: synNAPS-12 ligand (designed binder)
chain: MVKVKFKLTGEEKEVDTSKIQWVARFGKFVDFLYDDNGKTGWGWVYEKDAPKELLDMLARAEREKK
binding result [1]: binds

B2: synNAPS-5 ligand (designed binder)
chain: MVKVKFVLKGEEKEVDTSKITYVARYGKFVQFDYDDNGKFGAGVVLEKDAPKELLDMLARAEREKK
binding result [2]: binds

B3: synNAPS-7tag ligand (designed binder)
chain: MRGSHHHHHHGSVKVKFKVHGKEKEVDTSKILAVARWGKAVIFAYDDNGKHGRGQVSEKDAPKELLDMLARAEREKKLGSGLNDIFEAQKIEWH
modifications: in vivo biotinylation (E. coli BirA strain) on the C-terminal avidin-tag
notes: also called tagged synNAPS 7
binding result [3]: no binding (tested: 10 nM) | binding result [4]: no binding (tested: 10 nM) | binding result [5]: no binding (tested: 10 nM) | binding result [6]: no binding (tested: 10 nM) | binding result [7]: no binding (tested: 10 nM) | Binding to Insecticidal Protein (read at 405 nm) [8]: 0.7 absorbance 405 nm

B4: synNAPS-3tag ligand (designed binder)
chain: MRGSHHHHHHGSVKVKFRWGGEEKEVDTSKIWYVARVGKWVLFGYDDNGKRGAGRVREKDAPKELLDMLARAEREKKLGSGLNDIFEAQKIEWH
modifications: in vivo biotinylation (E. coli BirA strain) on the C-terminal avidin-tag
notes: also called tagged synNAPS 3
binding result [4]: no binding (tested: 10 nM) | binding result [9]: no binding (tested: 10 nM) | binding result [5]: no binding (tested: 10 nM) | binding result [7]: no binding (tested: 10 nM) | Binding to Insecticidal Protein (read at 405 nm) [10]: 0.75 absorbance 405 nm | Binding to Insecticidal Protein (read at 405 nm) [11]: 1.5 absorbance 405 nm

B5: synNAPS-11 ligand (designed binder)
chain: MVKVKFGLGGEEKEVDTSKIRRVLRLGKLVSFTYDDNGKIGLGDVHEKDAPKELLDMLARAEREKK
binding result [1]: binds

B6: synNAPS-8tag ligand (designed binder)
chain: MRGSHHHHHHGSVKVKFHGRGEEKEVDTSKIFWVYRDGKRVLFRYDDNGKRGFGSVPEKDAPKELLDMLARAEREKKLGSGLNDIFEAQKIEWH
modifications: chain 1: biotinylated in vivo on the C-terminal avidin-tag (E. coli BirA strain). The patent does not name the residue; it is presumably the tag's Lys, pos 90, written K.
notes: also called tagged synNAPS 8
binding result [3]: no binding (tested: 10 nM) | binding result [4]: no binding (tested: 10 nM) | binding result [5]: no binding (tested: 10 nM) | binding result [6]: no binding (tested: 10 nM) | binding result [7]: no binding (tested: 10 nM) | Binding to Insecticidal Protein (read at 405 nm) [8]: 1.6 absorbance 405 nm

B7: synNAPS-3 ligand (designed binder)
chain: MVKVKFRWGGEEKEVDTSKIWYVARVGKWVLFGYDDNGKRGAGRVREKDAPKELLDMLARAEREKK
binding result [2]: binds

B8: synNAPS-6tag ligand (designed binder)
chain: MRGSHHHHHHGSVKVKFMRWGEEKEVDTSKITYVTRWGKTVIFYYDDNGKKGHGSVLEKDAPKELLDMLARAEREKKLGSGLNDIFEAQKIEWH
modifications: in vivo biotinylation (E. coli BirA strain) on the C-terminal avidin-tag
notes: also called tagged synNAPS 6
binding result [3]: no binding (tested: 10 nM) | binding result [4]: no binding (tested: 10 nM) | binding result [5]: no binding (tested: 10 nM) | binding result [6]: no binding (tested: 10 nM) | binding result [7]: no binding (tested: 10 nM) | Binding to Insecticidal Protein (read at 405 nm) [8]: 1.1 absorbance 405 nm

B9: synNAPS-10 ligand (designed binder)
chain: MVKVKFLMKGEEKEVDTSKIKWVNRHGKYVAFYYDDNGKTGGGEVREKDAPKELLDMLARAEREKK
binding result [1]: binds

B10: synNAPS-14 ligand (designed binder)
chain: MVKVKFKYKGEEKEVDTSKIIFVYRFGKFVMFIYDDNGKTGHGDVREKDAPKELLDMLARAEREKK
binding result [1]: binds

B11: synNAPS-12tag ligand (designed binder)
chain: MRGSHHHHHHGSVKVKFKLTGEEKEVDTSKIQWVARFGKFVDFLYDDNGKTGWGWVYEKDAPKELLDMLARAEREKKLGSGLNDIFEAQKIEWH
modifications: in vivo biotinylation (E. coli BirA strain) on the C-terminal avidin-tag
notes: also called tagged synNAPS 12
binding result [3]: no binding (tested: 10 nM) | binding result [4]: no binding (tested: 10 nM) | binding result [9]: no binding (tested: 10 nM) | binding result [5]: no binding (tested: 10 nM) | binding result [6]: no binding (tested: 10 nM) | binding result [7]: no binding (tested: 10 nM)

B12: synNAPS-14tag ligand (designed binder)
chain: MRGSHHHHHHGSVKVKFKYKGEEKEVDTSKIIFVYRFGKFVMFIYDDNGKTGHGDVREKDAPKELLDMLARAEREKKLGSGLNDIFEAQKIEWH
modifications: in vivo biotinylation (E. coli BirA strain) on the C-terminal avidin-tag
notes: also called tagged synNAPS 14
binding result [3]: no binding (tested: 10 nM) | binding result [4]: no binding (tested: 10 nM) | binding result [9]: no binding (tested: 10 nM) | binding result [5]: no binding (tested: 10 nM) | binding result [6]: no binding (tested: 10 nM) | binding result [7]: no binding (tested: 10 nM)

B13: synNAPS-1 ligand (designed binder)
chain: MVKVKFGPWGEEKEVDTSKIVDVWRWGKYVDFFYDDNGKVGIGSVTEKDAPKELLDMLARAEREKK
binding result [2]: binds

B14: synNAPS-6 ligand (designed binder)
chain: MVKVKFMRWGEEKEVDTSKITYVTRWGKTVIFYYDDNGKKGHGSVLEKDAPKELLDMLARAEREKK
binding result [12]: binds

B15: synNAPS9 variant Q8A (designed binder)
chain: RGSHHHHHHGSMVKVKFAAGGEEKEVDTSKIYRVPRHGKIVFFMYDDNGKGGFGHVTEKDAPKELLDMLARAEREKK
binding affinity as percent of SEQ ID NO:17 [13]: ~112% | Binding (OD 450 nm) [14]: 2.8 OD 450 nm

B16: synNAPS9 variant M33A (designed binder)
chain: RGSHHHHHHGSMVKVKFAQGGEEKEVDTSKIYRVPRHGKIVFFAYDDNGKGGFGHVTEKDAPKELLDMLARAEREKK
binding affinity as percent of SEQ ID NO:17 [13]: ~112% | Binding (OD 450 nm) [14]: 2.8 OD 450 nm

B17: synNAPS-7 ligand (designed binder)
chain: MVKVKFKVHGKEKEVDTSKILAVARWGKAVIFAYDDNGKHGRGQVSEKDAPKELLDMLARAEREKK
binding result [12]: binds

B18: synNAPS-4 ligand (designed binder)
chain: MVKVKFKYKGEEKEVDTSKISYVQRAGKSVYFNYDDNGKTGGGRVFEKDAPKELLDMLARAEREKK
binding result [2]: binds

B19: synNAPS2 variant R44A (designed binder)
chain: RGSHHHHHHGSMVKVKFKYKGEEKEVDTSKIVWIGRFGKSVYFRYDDNGKTGAGAVYEKDAPKELLDMLARAEREKK
binding result [15]: no binding | Binding (OD 450 nm) [16]: 0 OD 450 nm

B20: synNAPS2 variant Y31A (designed binder)
chain: RGSHHHHHHGSMVKVKFKYKGEEKEVDTSKIVWIGRFGKSVAFRYDDNGKTGAGRVYEKDAPKELLDMLARAEREKK
binding result [15]: no binding | Binding (OD 450 nm) [16]: 0 OD 450 nm

B21: synNAPS2 variant S29A (designed binder)
chain: RGSHHHHHHGSMVKVKFKYKGEEKEVDTSKIVWIGRFGKAVYFRYDDNGKTGAGRVYEKDAPKELLDMLARAEREKK
binding result [15]: no binding | Binding (OD 450 nm) [16]: 0 OD 450 nm

B22: synNAPS2 variant W22A (designed binder)
chain: RGSHHHHHHGSMVKVKFKYKGEEKEVDTSKIVAIGRFGKSVYFRYDDNGKTGAGRVYEKDAPKELLDMLARAEREKK
binding result [15]: no binding | Binding (OD 450 nm) [16]: 0 OD 450 nm

B23: synNAPS-8 ligand (designed binder)
chain: MVKVKFHGRGEEKEVDTSKIFWVYRDGKRVLFRYDDNGKRGFGSVPEKDAPKELLDMLARAEREKK
binding result [12]: binds
